In US5874218, “Method for detecting a target compound in a substance using a nucleic acid ligand” (NeXstar Pharmaceuticals, Inc.):

What was measured:
[1] = molecular target: hCG (chorionic gonadotropin) (Homo sapiens, UniProt P01215;P0DN86 P01215:25-116,P0DN86:21-165); assay: dot blot of hCG in urine; detectable at 1.9 nM, saturates above 500 nM; higher signal in low salt buffer with 2 mM MgCl2; conditions: label: radiolabeled
Method: Test urine (obtained from pregnant individuals) and control urine (obtained from males) samples were pre-filtered through 0.2 mm polysulfone filters (Gelman Sciences) to remove particulate matter. hCG suspended in control urine to various concentrations (300 ml) was blotted onto pre-wetted nitrocellulose filters (from BioRad) under vacuum. Radiolabeled nucleic acid ligand to hCG, H-42 RNA (SEQ ID NO: 4)(100 ml of 1 pmole/ml) was then added to blots and filtered. Blots were immediately washed two times with 300 ml of TEM buffer. The blots were dried and analyzed by autoradiography and phosphorimager (Fuji).
In preliminary studies, anti-hCG antibodies were first applied to nitrocellulose blots to capture hCG and subsequently the radiolabeled RNA was used to detect the hormone. Such anti-hCG antibodies were required only if hCG was suspended in a buffer. However, if hCG in urine was used there was no significant difference in the signal in the presence and absence of antibodies. This may be due to the presence of other proteins in urine that serve as nonspecific carriers, effectively retaining hCG on the membrane. […] The signal saturates at high hCG concentration (>500 nM). Even at 1.9 nM hCG concentration, signal above background level was detected. Compared to control male urine (blots 1–3), the urine from a pregnant […] […]

[2] = molecular target: hTSH (thyroid stimulating hormone) (Homo sapiens, UniProt P01215;P01222 P01215:25-116,P01222:21-132); assay: dot blot on nitrocellulose, 50-800 nM hTSH, TEM buffer with 0.1% hSA, 0.5 M urea wash; conditions: tags: Becton Dickinson, Mr 27,700, 9 IU/mg; label: internally radiolabeled
Sequence of hTSH (thyroid stimulating hormone) (P01215 25-116, chain 1 of 2): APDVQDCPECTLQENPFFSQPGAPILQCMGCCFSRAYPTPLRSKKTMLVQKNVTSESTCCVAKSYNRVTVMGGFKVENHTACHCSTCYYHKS
Sequence of hTSH (thyroid stimulating hormone) (P01222 21-132, chain 2 of 2): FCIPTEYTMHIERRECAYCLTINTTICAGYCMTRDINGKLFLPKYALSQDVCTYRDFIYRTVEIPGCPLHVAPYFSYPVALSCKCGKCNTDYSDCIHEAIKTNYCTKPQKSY
Method: hTSH was suspended in TEM buffer (300 ml) containing 0.1% hSA (w/v) and applied to pre-wetted nitrocellulose filters (0.45 micron; BioRad) under suction. Gel-purified, internally labeled nucleic acid ligand T-15 (SEQ ID NO: 3) was then applied to the blots in 50 ml of TEM buffer (0.2 pmoles/ml) and filtered gently. Filters were immediately washed three times with 300 ml of 0.5M urea in the same buffer. The blots were dried and analyzed with a phosphorimager and by autoradiography.
The results wherein different concentrations of hTSH (from 800 nM (177 mIU/ml) to 50 nM (11 mIU/ml)) blotted on a nitrocellulose membrane were detected by radiolabeled nucleic acid ligand T-15 are shown in FIG. 4. Very low levels of background binding of RNA to nitrocellulose filters in the absence of hTSH (but with hSA in the buffer) was accomplished by washing blots with 0.5M urea in the binding buffer. This step eliminated most nonspecific binding, yet leaving specific binding of ligand T-15 to hTSH largely unaffected. […] However, with the affinity-selected radiolabeled ligand T-15, the radioactive signal on the blot correlated with the concentration of hTSH used. There is a linear relationship between the radioactive signal and the amount of hTSH up to 100 mIU/ml; the signal saturates above this concentration.

Sequence of hCG (chorionic gonadotropin) (P01215 25-116, chain 1 of 2, other chains not shown): as the sequence (P01215 25-116, chain 1 of 2) above

Binder | binding result [1] | binding result [2]
H-42 (ssRNA, 2'-NH2 pyrimidines (library chemistry)) RNA: GGGAGGACGAUGCGGACAAGGGCCUGAGUGUGGAGGGCACGUGGAGGGGACUGGCCAGACGACUCGCCCGA | binds | –
T-15 (ssRNA, 2'-NH2 on all C and U) RNA: GGGAGGACGAUGCGGAUGUUGGCAGCAGGGUCCGACGGCGUAACCUUGCCAGCUGCAGACGACUCGCCCGA | – | binds
